# Assay results published in paper PMC4022583, “The C-Terminal Random Coil Region Tunes the Ca^2+-Binding Affinity of S100A4 through Conformational Activation” (PLoS ONE, 2014).
# Experiments:
# [1] = target: T1, S100A4Δ13 (C-terminal deletion mutant, residues 1-88) (human, UniProt P26447 1-88); assay: ITC; 75 µM S100A4Δ13 in the cell titrated with MPT at 25°C (298 K) in the presence of 1 mM CaCl2; settings: both partners purified
# T1 construct: human S100A4, residues 1-88 (F89-K101 deleted); also called Δ13 mutant; Δ13 S100A4
# [2] = target: the molecule itself; assay: pulsed field gradient NMR diffusion; Ca2+-bound: same sample after addition of Ca2+ to 9 mM, 287 K; one and two components fitted for WT
# T1 sequence (P26447 1-88, stated change not applied): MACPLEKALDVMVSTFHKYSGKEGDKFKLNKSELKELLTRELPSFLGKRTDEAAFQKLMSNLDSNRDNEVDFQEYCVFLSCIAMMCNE
Binder,Kd [1] [nM],stoichiometry N [2]
"YRKLQRELEDATETADAMNREVSSLKNKLRRGDLPFVVPRRMARK (extra N-terminal tyrosine, printed as 'Tyr-Arg1894-Lys1937'; non-muscle myosin IIA (NMIIA) heavy chain, residues Arg1894-Lys1937; also called MPT peptide; myosin IIA fragment; not shown: His10, N-terminal, cleaved; ubiquitin, N-terminal, cleaved) [NMIIA fragment MPT (Tyr-Arg1894-Lys1937)]",14.7,
"S100A4 C-terminal deletion mutant (residues 1-88, Δ13) (domain or fragment, also called Δ13 mutant; S100A4Δ13) not shown",,2
